Reference: US20180009908
Changes are numbered by the printed parent chain. Like-named read-outs stand apart in the source and are kept apart here.

B1: matuzumab HC_20.8.34_B + matuzumab LC (IgG1) (protein)
chain 1: QVQLVQSGAEVKKPGASVKVSCKASGYTFTSHWMHWVRYAPGQGLEWIGEFNPSNGRTNYNEKFKSKATMTVDTSTNTAYMELSSLRSEDTAVYYCASRDYDYDGRYFDYWGRGTLVTVSSASTKGPSVFPLAPCSKSTSGGTAALGCLVKDYFPEPVTVSWNSGALTSGVHTFPAVLQSSGLYSLSSVVTVPSSSLGTQTYICNVNHKPSNTKVDKKVEPDSGDKTHTCPPCPAPELLGGPSVFLFPPKPKDTLMISRTPEVTCVVVDVSHEDPEVKFNWYVDGVEVHNAKTKPREEQYNSTYRVVSVLTVLHQDWLNGKEYKCKVSNKALPAPIEKTISKAKGQPREPQVYTLPPSRGDMTKNQVQLTCLVKGFYPSDIAVEWESNGQPENNYKTTPPVLDSDGSFFLASKLTVDKSRWQQGNVFSCSVMHEALHNHYTQKSLSLSPGK
chain 2: DIQMTQSPSSLSASVGDRVTITCSASSSVTYMYWYQRKPGDAPKLLIYDTSNLASGVPSRFSGSGSGTDYTFTISSLQPEDIATYYCQQWSSHIFTFGQGTKVEIKRTVAAPSVFIFPPSKEQLKSGTASVVCLLNNFYPREAKVQWKVDNALQSGNSQESVTEQDSKDSTYSLSSTLTLSKADYEKHKVYACEVTHQGLSSPVTKSFNRGEC
B2: matuzumab HC_7.8.60_B + matuzumab LC (IgG1) (protein)
chain 1: B1 chain 1 with E349R, Q351R, G360E, D361E, Q368S, T370V, A411Y, K413V
chain 2: B1 chain 2
B3: matuzumab HC_20.8.37_B + matuzumab LC (IgG1) (protein)
chain 1: B1 chain 1 with G360E, Q368R
chain 2: B1 chain 2
B4: BHA10 HC_7.8.60_B + BHA10 LC (IgG1) (protein)
chain 1: QVQLVQSGAEVKKPGSSVKVSCKASGYTFTTYYLHWVRYAPGQGLEWMGWIYPGNVHAQYNEKFKGRVTITADKSTSTAYMELSSLRSEDTAVYYCARSWEGFPYWGRGTTVTVSSASTKGPSVFPLAPCSKSTSGGTAALGCLVKDYFPEPVTVSWNSGALTSGVHTFPAVLQSSGLYSLSSVVTVPSSSLGTQTYICNVNHKPSNTKVDKKVEPDSGDKTHTCPPCPAPELLGGPSVFLFPPKPKDTLMISRTPEVTCVVVDVSHEDPEVKFNWYVDGVEVHNAKTKPREEQYNSTYRVVSVLTVLHQDWLNGKEYKCKVSNKALPAPIEKTISKAKGQPRRPRVYTLPPSREEMTKNQVSLVCLVKGFYPSDIAVEWESNGQPENNYKTTPPVLDSDGSFFLYSVLTVDKSRWQQGNVFSCSVMHEALHNHYTQKSLSLSPGK
chain 2: DIQMTQSPSSLSASVGDRVTITCKASQNVGINVAWYQRKPGDAPKSLISSASYRYSGVPSRFSGSGSGTDFTLTISSLQPEDFATYFCQQYDTYPFTFGQGTKVEIKRTVAAPSVFIFPPSKEQLKSGTASVVCLLNNFYPREAKVQWKVDNALQSGNSQESVTEQDSKDSTYSLSSTLTLSKADYEKHKVYACEVTHQGLSSPVTKSFNRGEC
B5: BHA10 HC_20.8.34_B + BHA10 LC (IgG1) (protein)
chain 1: B4 chain 1 with R344E, R346Q, E355G, E356D, S363Q, V365T, Y406A, V408K
chain 2: B4 chain 2
B6: BHA10 HC_20.8_B + BHA10 LC (IgG1) (protein)
chain 1: B4 chain 1 with R344E, R346Q, E356D, S363Q, V365T, Y406A, V408K
chain 2: B4 chain 2
B7: BHA10 HC_20.8.37_B + BHA10 LC (IgG1) (protein)
chain 1: B4 chain 1 with R344E, R346Q, E356D, S363R, V365T, Y406A, V408K
chain 2: B4 chain 2

Test: LCMS, IgG1 BsAb co-expression; HCB homodimer species
[1] = pertuzumab × matuzumab bispecific

Row | Protein | % BB Homodimer (incorrect assembly) (MetMAb × matuzumab bispecific) | % BB Homodimer (incorrect assembly) [1] | % BB Homodimer (incorrect assembly)
1 | B1 | 0% | 1.6% | –
2 | B2 | – | – | 1.3%
3 | B3 | 0% | 0.5% | –
4 | B4 | – | – | 1.6%
5 | B5 | – | – | 0%
6 | B6 | – | – | 0%
7 | B7 | – | – | 0%
